Where a chain is given by its changes, count along the chain named. One block for each binder: values may come before it.
Columns and labels:
human complement C1q = biological target: T1, human complement C1q (human, UniProt P02745 23-245; P02746 28-253; P02747 29-245); assay: SPR, C1q bound per antibody captured on Protein L
T1 construct: Bought (PROSPEC or Calbiochem); also called human C1q
Procedure: The interaction between an antibody and human C1q was analyzed using Biacore T200 (GE Healthcare). HBS-EP+ (GE Healthcare) was used as the running buffer, and the measurement temperature was set at 25° C. Chips produced by immobilizing Protein L (ACTIGEN or BioVision) onto Series S sensor Chip CM4 (GE Healthcare) by amine coupling were used.
The antibodies of interest were captured onto these sensor chips, and allowed to interact with human complement C1q (PROSPEC or Calbiochem) diluted in the running buffer. The amount of antibody binding was determined, and comparisons were made among the antibodies. However, since the amount of C1q bound depends on the amount of captured antibodies, corrected values obtained by dividing the amount of C1q bound by the amount of each antibody captured were compared. Furthermore, by reaction with 10 mM glycine-HCl, pH 1.5, the antibodies captured onto the sensor chips were washed, and the sensor chips were recycled and reused.

FcgRIIb = biological target: T2, FcgRIIb (human, UniProt P31994 43-217); assay: SPR, amount bound per captured antibody
T2 construct: extracellular domain; also called FcγRIIb
T2 sequence (looked up): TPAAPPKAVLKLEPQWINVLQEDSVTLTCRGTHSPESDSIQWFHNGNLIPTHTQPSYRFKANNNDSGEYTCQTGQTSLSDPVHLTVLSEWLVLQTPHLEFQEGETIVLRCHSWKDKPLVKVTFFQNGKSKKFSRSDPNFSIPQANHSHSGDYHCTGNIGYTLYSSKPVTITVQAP

FcgRIIaR = biological target: T3, FcgRIIaR (human, UniProt P12318 34-217); assay: SPR, amount bound per captured antibody
T3 construct: extracellular domain; also called FcγRIIa R type; FcγRIIa (R type)
T3 sequence (looked up): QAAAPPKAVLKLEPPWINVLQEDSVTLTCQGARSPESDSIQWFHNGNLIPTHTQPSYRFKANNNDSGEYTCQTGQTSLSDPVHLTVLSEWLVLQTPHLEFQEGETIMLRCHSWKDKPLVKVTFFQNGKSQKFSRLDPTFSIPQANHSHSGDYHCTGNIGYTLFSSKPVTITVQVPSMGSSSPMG

[1] = biological target: T4, FcγRIIa R type extracellular domain with C-terminal His tag (human, UniProt P12318 34-217); assay: SPR, antibody captured, FcgR analyte
T4 construct: extracellular domain; also called FcgRIIaR; not shown: His tag at the C terminus
T4 sequence (looked up): T3 sequence (looked up)

[2] = biological target: T5, FcγRIIb extracellular domain with C-terminal His tag (human, UniProt P31994 43-217); assay: SPR, antibody captured, FcgR analyte
T5 construct: extracellular domain; also called FcgRIIb; not shown: His tag at the C terminus
T5 sequence (looked up): T2 sequence (looked up)

[3] = biological target: T6, FcγRIa extracellular domain with C-terminal His tag (human, UniProt P12314 16-292); assay: SPR, antibody captured, FcgR analyte
T6 construct: also called FcgRIa; CD64; not shown: His tag at the C terminus

[4] = biological target: T7, human FcγRIIa R type extracellular domain with C-terminal His tag (human, UniProt P12318 34-217); assay: SPR, KD of IL6R-G1d/IL6R-L divided by KD of variant
T7 construct: extracellular domain; also called FcgRIIaR
T7 sequence (looked up): T3 sequence (looked up)

[5] = biological target: T8, human FcγRIa extracellular domain with C-terminal His tag (human, UniProt P12314 16-292); assay: as above
T8 construct: Whole entry named; also called FcgRIa

[6] = biological target: T9, human FcγRIIb extracellular domain with C-terminal His tag (human, UniProt P31994 43-217); assay: as above
T9 construct: extracellular domain; also called FcgRIIb
T9 sequence (looked up): T2 sequence (looked up)

[7] = biological target: T10, human FcγRIIIa V type extracellular domain with C-terminal His tag (human, UniProt P08637 17-208); assay: as above
T10 construct: extracellular domain; also called FcgRIIIaV

[8] = biological target: T11, human FcγRIIa H type extracellular domain with C-terminal His tag (human, UniProt P12318 34-217); assay: as above
T11 construct: extracellular domain; also called FcgRIIaH
T11 sequence (looked up): T3 sequence (looked up) with R134H

T1 sequence (P02745 23-245 limits assumed, chain 1 of 3): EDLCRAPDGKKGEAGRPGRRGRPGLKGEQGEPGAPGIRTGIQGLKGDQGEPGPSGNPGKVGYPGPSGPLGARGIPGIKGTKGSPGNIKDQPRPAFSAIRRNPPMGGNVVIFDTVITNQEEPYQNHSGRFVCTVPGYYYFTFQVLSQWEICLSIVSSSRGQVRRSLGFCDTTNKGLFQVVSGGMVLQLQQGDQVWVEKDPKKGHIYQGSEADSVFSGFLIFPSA
T1 sequence (P02746 28-253 limits assumed, chain 2 of 3): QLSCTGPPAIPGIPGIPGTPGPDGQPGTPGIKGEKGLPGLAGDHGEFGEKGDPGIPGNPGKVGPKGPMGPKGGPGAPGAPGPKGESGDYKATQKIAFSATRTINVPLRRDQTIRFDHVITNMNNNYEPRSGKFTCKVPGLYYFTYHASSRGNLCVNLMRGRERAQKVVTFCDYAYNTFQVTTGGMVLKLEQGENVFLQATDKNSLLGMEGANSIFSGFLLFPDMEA
T1 sequence (P02747 29-245 limits assumed, chain 3 of 3): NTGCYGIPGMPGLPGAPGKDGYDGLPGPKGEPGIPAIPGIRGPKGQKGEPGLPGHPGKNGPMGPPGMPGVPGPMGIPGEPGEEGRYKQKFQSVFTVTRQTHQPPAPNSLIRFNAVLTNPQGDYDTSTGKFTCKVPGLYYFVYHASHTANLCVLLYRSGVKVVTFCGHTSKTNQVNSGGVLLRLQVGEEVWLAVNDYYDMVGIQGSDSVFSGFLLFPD
T6 sequence (P12314 16-292): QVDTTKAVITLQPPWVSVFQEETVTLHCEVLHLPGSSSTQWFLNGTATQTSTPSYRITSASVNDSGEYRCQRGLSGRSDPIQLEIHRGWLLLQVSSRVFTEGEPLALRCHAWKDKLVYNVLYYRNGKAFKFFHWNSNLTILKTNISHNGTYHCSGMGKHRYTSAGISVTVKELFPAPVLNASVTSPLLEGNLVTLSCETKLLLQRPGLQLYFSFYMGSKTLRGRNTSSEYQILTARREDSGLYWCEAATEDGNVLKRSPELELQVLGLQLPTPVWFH
T8 sequence (P12314 16-292): as above
T10 sequence (P08637 17-208 F176V): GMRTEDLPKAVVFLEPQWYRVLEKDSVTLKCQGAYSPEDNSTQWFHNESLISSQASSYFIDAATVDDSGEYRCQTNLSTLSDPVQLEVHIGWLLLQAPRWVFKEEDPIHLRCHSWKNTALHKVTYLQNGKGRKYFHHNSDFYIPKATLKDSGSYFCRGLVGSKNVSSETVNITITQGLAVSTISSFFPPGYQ

Amount of C1q-binding when that for G1d is Defined as 100 (human complement C1q): 15.2 G1d=100 | Relative FcgRIIb-binding Activity (FcgRIIb): 115 IL6R-G1d/IL6R-L=100 | Relative FcgRIIaR-binding Activity (FcgRIIaR): 98.5 IL6R-G1d/IL6R-L=100
B1: IL6R-G1dGSS/IL6R-L (antibody, human IgG1, kappa)
heavy: QVQLQESGPGLVKPSETLSLTCAVSGHSISHDHAWSWVRQPPGEGLEWIGFISYSGITNYNPSLQGRVTISRDNSKNTLYLQMNSLRAEDTAVYYCARSLARTTAMDYWGEGTLVTVSSASTKGPSVFPLAPSSKSTSGGTAALGCLVKDYFPEPVTVSWNSGALTSGVHTFPAVLQSSGLYSLSSVVTVPSSSLGTQTYICNVNHKPSNTKVDKKVEPKSCDKTHTCPPCPAPELLGGPSVFLFPPKPKDTLMISRTPEVTCVVVDVSHEDPEVKFNWYVDGVEVHNAKTKPREEQYNSTYRVVSVLTVLHQDWLNGKEYKCKVSNKGLPSSIEKTISKAKGQPREPQVYTLPPSRDELTKNQVSLTCLVKGFYPSDIAVEWESNGQPENNYKTTPPVLDSDGSFFLYSKLTVDKSRWQQGNVFSCSVMHEALHNHYTQKSLSLSP
light: not shown

Amount of C1q-binding when that for G1d is Defined as 100 (human complement C1q): 34.1 G1d=100 | Relative FcgRIIb-binding Activity (FcgRIIb): 319 IL6R-G1d/IL6R-L=100 | Relative FcgRIIaR-binding Activity (FcgRIIaR): 89.4 IL6R-G1d/IL6R-L=100
B2: IL6R-P559/IL6R-L (antibody, human IgG1, kappa)
heavy: B1 heavy with G239D, P240D, H270E, P273G, G329A, S332A, S333P
light: not shown

Amount of C1q-binding when that for G1d is Defined as 100 (human complement C1q): 132 G1d=100 | Relative FcgRIIb-binding Activity (FcgRIIb): 350 IL6R-G1d/IL6R-L=100 | Relative FcgRIIaR-binding Activity (FcgRIIaR): 106 IL6R-G1d/IL6R-L=100
B3: IL6R-P587/IL6R-L (antibody, human IgG1, kappa)
heavy: B1 heavy with E235D, P240D, V266I, S269A, H270E, P273G, G329A, S332A, S333P
light: not shown

Amount of C1q-binding when that for G1d is Defined as 100 (human complement C1q): 108 G1d=100 | Relative FcgRIIb-binding Activity (FcgRIIb): 346 IL6R-G1d/IL6R-L=100 | Relative FcgRIIaR-binding Activity (FcgRIIaR): 100 IL6R-G1d/IL6R-L=100
B4: IL6R-P588/IL6R-L (antibody, human IgG1, kappa)
heavy: B1 heavy with P240D, V266I, S269A, H270E, P273G, G329A, S332A, S333P
light: not shown

Kd [1]: 120 nM | Kd [2]: 3.8 nM | Kd [3]: 9.4 nM
B5: IL6R-BP531/IL6R-L (antibody, human IgG1, kappa, name in EU numbering)
heavy: QVQLQESGPGLVKPSETLSLTCAVSGHSISHDHAWSWVRQPPGEGLEWIGFISYSGITNYNPSLQGRVTISRDNSKNTLYLQMNSLRAEDTAVYYCARSLARTTAMDYWGEGTLVTVSSASTKGPSVFPLAPSSKSTSGGTAALGCLVKDYFPEPVTVSWNSGALTSGVHTFPAVLQSSGLYSLSSVVTVPSSSLGTQTYICNVNHKPSNTKVDKKVEPKSCDKTHTCPPCPAPDLLGDDSVFLFPPKPKDTLMISRTPEVTCVVIDVGEEDGEVKFNWYVDGVEVHNAKTKPREEQDNSTYRVVSVLTVLHQDWLNGKEYKCKVSNKALPRPIEKTISKAKGQPREPQVYTLPPSRDELTKNQVSLTCLVKGFYPSDIAVEWESNGQPENNYKTTPMVLDSDGSFFLYSKLTVDKSRWQQGNVFSCSVMHEALHNHYTQESLSLSP
light: not shown
notes: human IgG1

Kd [1]: 100 nM | Kd [2]: 2.9 nM | Kd [3]: 2.6 nM
B6: IL6R-BP507/IL6R-L (antibody, human IgG1, kappa, name in EU numbering)
heavy: B5 heavy with G269A, E274P, D298Y, M398P
light: not shown
notes: human IgG1

Amount of C1q-binding when that for G1d is Defined as 100 (human complement C1q): 33.5 G1d=100 | Relative FcgRIIb-binding Activity (FcgRIIb): 294 IL6R-G1d/IL6R-L=100 | Relative FcgRIIaR-binding Activity (FcgRIIaR): 81.7 IL6R-G1d/IL6R-L=100
B7: IL6R-P556/IL6R-L (antibody, human IgG1, kappa)
heavy: B5 heavy with I266V, G269S, E270D, D298Y, R332A, M398P, E441K
light: not shown

Relative FcgRIIaR-binding Activity [4]: 0.92 | Relative FcgRIa-binding Activity [5]: 0.451 | Relative FcgRIIb-binding Activity [6]: 75 | Relative FcgRIIIaV-binding Activity [7]: 0.012 | Relative FcgRIIaH-binding Activity [8]: 0.044
B8: IL6R-P587/IL6R-L (antibody, human IgG1, kappa)
heavy: B5 heavy with D239G, G269A, D298Y, R332A, M398P, E441K
light: not shown

Kd [1]: 270 nM | Kd [2]: 6.9 nM | Kd [3]: 29 nM
B9: IL6R-BP537/IL6R-L (antibody, human IgG1)
heavy: B5 heavy with D235E, D298Y, M398P
light: not shown
notes: human IgG1

Amount of C1q-binding when that for G1d is Defined as 100 (human complement C1q): 35.5 G1d=100 | Relative FcgRIIb-binding Activity (FcgRIIb): 93 IL6R-G1d/IL6R-L=100 | Relative FcgRIIaR-binding Activity (FcgRIIaR): 9.7 IL6R-G1d/IL6R-L=100
B10: IL6R-P727/IL6R-L (antibody, human IgG1, kappa)
heavy: B1 heavy with G239Q, P240D, F243M, H270P, Y298E, G329A, S332H, S333P
light: not shown

Kd [1]: 86 nM | Kd [2]: 3.1 nM | Kd [3]: 3.4 nM
B11: IL6R-BP553/IL6R-L (antibody, human IgG1, kappa, name in EU numbering)
heavy: B5 heavy with G269A, E274D, D298Y, M398P
light: not shown
notes: human IgG1

Amount of C1q-binding when that for G1d is Defined as 100 (human complement C1q): 13.6 G1d=100 | Relative FcgRIIb-binding Activity (FcgRIIb): 81.4 IL6R-G1d/IL6R-L=100 | Relative FcgRIIaR-binding Activity (FcgRIIaR): 11.1 IL6R-G1d/IL6R-L=100
B12: IL6R-P744/IL6R-L (antibody, human IgG1, kappa)
heavy: B1 heavy with P240D, S300A, K324A, G329A, S332A, S333P
light: not shown

Amount of C1q-binding when that for G1d is Defined as 100 (human complement C1q): 45.7 G1d=100 | Relative FcgRIIb-binding Activity (FcgRIIb): 78.7 IL6R-G1d/IL6R-L=100 | Relative FcgRIIaR-binding Activity (FcgRIIaR): 8 IL6R-G1d/IL6R-L=100
B13: IL6R-P737/IL6R-L (antibody, human IgG1, kappa)
heavy: B1 heavy with G239Q, P240D, F243M, H270P, Y298E, S326H, G329A, S332H, S333P
light: not shown

Amount of C1q-binding when that for G1d is Defined as 100 (human complement C1q): 29.4 G1d=100 | Relative FcgRIIb-binding Activity (FcgRIIb): 311 IL6R-G1d/IL6R-L=100 | Relative FcgRIIaR-binding Activity (FcgRIIaR): 89.7 IL6R-G1d/IL6R-L=100
B14: IL6R-P562/IL6R-L (antibody, human IgG1, kappa)
heavy: B5 heavy with I266V, G269S, D298Y, R332A, M398P, E441K
light: not shown
